The stoichiometry N is a count of units in the complex or per binding partner.

From paper PMC6753376 (Molecular Systems Biology, 2019) come the findings set out here.

One assay concerns the target C3b (human) (UniProt P01024). The assay can be described thus: cross-linking; quantitative cross-linking mass spectrometry (QCLMS) of C3b alone; C3b monomer and dimer labelled as in Chen et al, 2016c, in-gel digested with trypsin, then sequential digestion.
The target of another assay is T1, Mcm2 (S. cerevisiae, UniProt P29469 1-868).
T1 construct: Mcm2, S. cerevisiae, subunit of MCM2-7 in the OCCM complex; the search database held all 14 OCCM subunits; source: in the OCCM complex assembled on pUC19-ARS1 beads as described elsewhere (Evrin et al, 2009)
T1 sequence (looked up): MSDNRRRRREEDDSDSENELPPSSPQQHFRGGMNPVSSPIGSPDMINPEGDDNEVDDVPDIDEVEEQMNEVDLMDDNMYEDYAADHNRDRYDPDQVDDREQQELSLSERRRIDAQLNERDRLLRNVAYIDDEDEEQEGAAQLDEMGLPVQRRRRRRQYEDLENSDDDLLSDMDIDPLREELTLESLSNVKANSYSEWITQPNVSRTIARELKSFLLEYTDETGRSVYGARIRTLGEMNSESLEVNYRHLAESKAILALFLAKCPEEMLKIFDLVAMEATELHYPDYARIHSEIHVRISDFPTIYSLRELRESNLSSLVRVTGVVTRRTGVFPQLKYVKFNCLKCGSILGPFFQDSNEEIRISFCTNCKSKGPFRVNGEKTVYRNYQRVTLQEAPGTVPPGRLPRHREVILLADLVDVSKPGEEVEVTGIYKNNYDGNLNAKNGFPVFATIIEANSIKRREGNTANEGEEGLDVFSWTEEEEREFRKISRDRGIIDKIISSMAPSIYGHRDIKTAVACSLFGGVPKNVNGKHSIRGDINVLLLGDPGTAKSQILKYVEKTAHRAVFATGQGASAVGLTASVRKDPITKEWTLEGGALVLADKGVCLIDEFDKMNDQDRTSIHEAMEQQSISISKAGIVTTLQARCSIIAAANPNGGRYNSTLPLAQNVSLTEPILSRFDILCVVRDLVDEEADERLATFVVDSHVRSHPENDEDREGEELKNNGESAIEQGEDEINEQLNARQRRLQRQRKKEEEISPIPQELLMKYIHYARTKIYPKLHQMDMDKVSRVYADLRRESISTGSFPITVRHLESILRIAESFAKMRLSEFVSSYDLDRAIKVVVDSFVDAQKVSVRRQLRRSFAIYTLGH
The assay can be described thus: cross-linking; BS3 cross-linking of 200 ug OCCM complex on pUC19-ARS1 beads, 1:8,100 protein to crosslinker molar ratio, 2 h on ice; sequential digestion, SEC, LC-MS/MS, xiSEARCH, 5% FDR. The note with it: both partners purified.

The target in the next assay is T2, Mcm6 (S. cerevisiae, UniProt P53091 1-1017).
T2 construct: Mcm6, S. cerevisiae, subunit of MCM2-7 in the OCCM complex; source: in the OCCM complex assembled on pUC19-ARS1 beads as described elsewhere (Evrin et al, 2009)
T2 sequence (P53091 whole entry): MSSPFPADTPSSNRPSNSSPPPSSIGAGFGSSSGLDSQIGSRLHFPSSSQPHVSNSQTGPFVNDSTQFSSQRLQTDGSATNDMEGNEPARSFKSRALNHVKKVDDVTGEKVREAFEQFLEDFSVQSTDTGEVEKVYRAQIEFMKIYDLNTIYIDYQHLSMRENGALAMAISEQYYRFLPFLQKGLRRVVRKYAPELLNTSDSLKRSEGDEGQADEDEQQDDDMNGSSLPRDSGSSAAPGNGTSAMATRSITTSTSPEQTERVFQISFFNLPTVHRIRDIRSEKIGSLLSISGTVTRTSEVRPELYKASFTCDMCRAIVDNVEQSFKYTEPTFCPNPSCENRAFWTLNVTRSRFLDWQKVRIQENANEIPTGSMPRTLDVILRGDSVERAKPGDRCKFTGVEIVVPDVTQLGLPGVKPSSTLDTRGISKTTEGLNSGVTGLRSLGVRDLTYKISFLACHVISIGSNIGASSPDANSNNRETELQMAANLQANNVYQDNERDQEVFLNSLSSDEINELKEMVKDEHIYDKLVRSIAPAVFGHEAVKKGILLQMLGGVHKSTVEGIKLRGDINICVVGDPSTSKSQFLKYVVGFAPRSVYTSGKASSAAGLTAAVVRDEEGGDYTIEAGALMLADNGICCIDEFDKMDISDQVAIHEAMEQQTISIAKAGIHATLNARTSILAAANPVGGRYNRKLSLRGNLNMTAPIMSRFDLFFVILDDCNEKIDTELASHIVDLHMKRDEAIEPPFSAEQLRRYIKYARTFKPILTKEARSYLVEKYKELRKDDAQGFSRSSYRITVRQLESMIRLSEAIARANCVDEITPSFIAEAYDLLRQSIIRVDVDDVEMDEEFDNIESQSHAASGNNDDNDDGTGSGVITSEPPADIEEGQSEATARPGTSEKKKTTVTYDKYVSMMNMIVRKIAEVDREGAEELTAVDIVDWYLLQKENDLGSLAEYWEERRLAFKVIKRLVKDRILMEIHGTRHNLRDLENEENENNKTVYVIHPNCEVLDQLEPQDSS
Described as above. As to conditions: both partners purified.

Take “C3b (from UniProt P01024 749-1663; P01024 749-1663) (natural protein)”: the stoichiometry N with C3b (human) came out at 2.

B1: Orc5 (natural protein, S. cerevisiae, UniProt P50874 1-479, looked up)
chain: MNVTTPEVAFREYQTNCLASYISADPDITPSNLILQGYSGTGKTYTLKKYFNANPNLHAVWLEPVELVSWKPLLQAIARTVQYKLKTLYPNIPTTDYDPLQVEEPFLLVKTLHNIFVQYESLQEKTCLFLILDGFDSLQDLDAALFNKYIKLNELLPKDSKINIKFIYTMLETSFLQRYSTHCIPTVMFPRYNVDEVSTILVMSRCGELMEDSCLRKRIIEEQITDCTDDQFQNVAANFIHLIVQAFHSYTGNDIFALNDLIDFKWPKYVSRITKENIFEPLALYKSAIKLFLSTDDNLSENGQGESAITTNRDDLENSQTYDLSIISKYLLIASYICSYLEPRYDASIFSRKTRIIQGRAAYGRRKKKEVNPRYLQPSLFAIERLLAIFQAIFPIQGKAESGSLSALREESLMKANIEVFQNLSELHTLKLIATTMNKNIDYLSPKVRWKVNVPWEIIKEISESVHFNISDYFSDIHE
notes: Orc5, S. cerevisiae, subunit of ORC in the OCCM complex; source: in the OCCM complex assembled on pUC19-ARS1 beads as described elsewhere (Evrin et al, 2009)
Take B1: the binding result with Mcm2 is “binds”.

B2: Orc2 (natural protein, S. cerevisiae, UniProt P32833 1-620, looked up)
chain: MLNGEDFVEHNDILSSPAKSRNVTPKRVDPHGERQLRRIHSSKKNLLERISLVGNERKNTSPDPALKPKTPSKAPRKRGRPRKIQEELTDRIKKDEKDTISSKKKRKLDKDTSGNVNEESKTSNNKQVMEKTGIKEKREREKIQVATTTYEDNVTPQTDDNFVSNSPEPPEPATPSKKSLTTNHDFTSPLKQIIMNNLKEYKDSTSPGKLTLSRNFTPTPVPKNKKLYQTSETKSASSFLDTFEGYFDQRKIVRTNAKSRHTMSMAPDVTREEFSLVSNFFNENFQKRPRQKLFEIQKKMFPQYWFELTQGFSLLFYGVGSKRNFLEEFAIDYLSPKIAYSQLAYENELQQNKPVNSIPCLILNGYNPSCNYRDVFKEITDLLVPAELTRSETKYWGNHVILQIQKMIDFYKNQPLDIKLILVVHNLDGPSIRKNTFQTMLSFLSVIRQIAIVASTDHIYAPLLWDNMKAQNYNFVFHDISNFEPSTVESTFQDVMKMGKSDTSSGAEGAKYVLQSLTVNSKKMYKLLIETQMQNMGNLSANTGPKRGTQRTGVELKLFNHLCAADFIASNEIALRSMLREFIEHKMANITKNNSGMEIIWVPYTYAELEKLLKTVLNTL
notes: Orc2, S. cerevisiae, subunit of ORC in the OCCM complex; source: in the OCCM complex assembled on pUC19-ARS1 beads as described elsewhere (Evrin et al, 2009)
B2: the binding result with Mcm2 is “binds”.

B3: Cdt1 (natural protein, S. cerevisiae, UniProt P47112 1-604, looked up)
chain: MSGTANSRRKEVLRVPVIDLNRVSDEEQLLPVVRAILLQHDTFLLKNYANKAVLDALLAGLTTKDLPDTSQGFDANFTGTLPLEDDVWLEQYIFDTDPQLRFDRKCRNESLCSIYSRLFKLGLFFAQLCVKSVVSSAELQDCISTSHYATKLTRYFNDNGSTHDGADAGATVLPTGDDFQYLFERDYVTFLPTGVLTIFPCAKAIRYKPSTMATTDNSWVSIDEPDCLLFHTGTLLARWSQGMHTTSPLQIDPRANIVSLTIWPPLTTPISSKGEGTIANHLLEQQIKAFPKVAQQYYPRELSILRLQDAMKFVKELFTVCETVLSLNALSRSTGVPPELHVLLPQISSMMKRKIVQDDILKLLTIWSDAYVVELNSRGELTMNLPKRDNLTTLTNKSRTLAFVERAESWYQQVIASKDEIMTDVPAFKINKRRSSSNSKTVLSSKVQTKSSNANALNNSRYLANSKENFMYKEKMPDSQANLMDRLRERERRSAALLSQRQKRYQQFLAMKMTQVFDILFSLTRGQPYTETYLSSLIVDSLQDSNNPIGTKEASEILAGLQGILPMDISVHQVDGGLKVYRWNSLDKNRFSKLLQIHKSKQQD
notes: Cdt1, S. cerevisiae, subunit of the OCCM complex; source: in the OCCM complex assembled on pUC19-ARS1 beads as described elsewhere (Evrin et al, 2009)
B3: in the assay with Mcm6, the binding result was “binds”.
